Reference: paper PMC4452267

Legend:
[1] = biological target: T1, PpsR (Rubrivivax gelatinosus) (UniProt I0HUJ5); experiment: DNase I footprinting; details: EMSA: 5 nM probe, 25 mM Tris-HCl pH 8.0, 100 mM NaCl, 2 mM MgCl2, 6% glycerol, 50 ug/ml heparin, room temperature 30 min (5 mM DTT if reduced); footprint: …
T1 sequence: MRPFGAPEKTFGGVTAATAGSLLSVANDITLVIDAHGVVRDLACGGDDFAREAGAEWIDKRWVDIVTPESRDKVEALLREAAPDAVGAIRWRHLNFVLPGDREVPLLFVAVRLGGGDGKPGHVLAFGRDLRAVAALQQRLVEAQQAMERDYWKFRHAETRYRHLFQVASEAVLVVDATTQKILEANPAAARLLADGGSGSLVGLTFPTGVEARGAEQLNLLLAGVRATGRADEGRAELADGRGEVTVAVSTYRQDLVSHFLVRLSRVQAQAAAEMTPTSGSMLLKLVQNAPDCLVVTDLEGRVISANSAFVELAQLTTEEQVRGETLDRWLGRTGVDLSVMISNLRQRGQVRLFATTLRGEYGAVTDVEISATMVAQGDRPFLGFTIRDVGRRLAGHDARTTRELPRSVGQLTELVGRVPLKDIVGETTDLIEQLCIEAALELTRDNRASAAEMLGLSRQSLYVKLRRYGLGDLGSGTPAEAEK

[2] = test system: PpsR (Rubrivivax gelatinosus); experiment: EMSA; details: EC50, EMSA: 5 nM probe, 25 mM Tris-HCl pH 8.0, 100 mM NaCl, 2 mM MgCl2, 6% glycerol, 50 ug/ml heparin, room temperature 30 min (5 mM DTT if reduced), footprint: …
[3] = test system: PpsR C436A (Rubrivivax gelatinosus); experiment: EMSA; details: EC50, EMSA: 5 nM probe, 25 mM Tris-HCl pH 8.0, 100 mM NaCl, 2 mM MgCl2, 6% glycerol, 50 ug/ml heparin, room temperature 30 min (5 mM DTT if reduced), footprint: …
[4] = biological target: Rubrivivax gelatinosus PpsR (Rubrivivax gelatinosus); experiment: SEC; Superose 12 in 20 mM Tris-HCl (pH 8.0), 500 mM NaCl, 6% glycerol, 0.5 ml/min; molecular weight estimated from a standard curve (Gel Filtration Standard, BioRad)

Row | Substance | binding [1] | K half ([2]; oxidized (untreated)) [nM] | K half ([2]; reduced, 5 mM DTT) [nM] | K half ([3]; oxidized (untreated)) [nM] | K half ([3]; reduced, 5 mM DTT) [nM] | stoichiometry N [4]
1 | ACCAGTTTCCGTGCTCGACCCGCACGTGGGTTGGCTTCTGTAGCCCTCGGATTTCTCCCTACCGACATGTGTAACGCTACGCTGACAGGGTGGGGGCGTCAACATGTCGTGACACCCCCGCAACGCTGAATGTGTCGCGGCTCTGATCTATGACAAATTGCCGGGGTCCGGCGGGCCTCGGGAGCTCT (double strand) [pucB promoter footprint probe] | binds |  |  |  |  | 
2 | crtI promoter EMSA probe |  | 80.5 | 86.5 | 146 | 147 | 
3 | pucB promoter EMSA probe |  | 49.8 | 63.3 | 94.1 | 93.3 | 
4 | ATCCTGCTTTCCGGCCGCGCGCGGGGCTGCGGCATCCGACTTCATCAGCATCCGTCGAGCTTGTCCTAAGGCAGGGATTGTGTCAACGACAATTGACGCTCTGTTTTGTCAAGCGCAAGATTCAGCCCCATGGCAAGGCCCGCGTTGTCCGCTGTAGCGGAGTTGCTCAAACCGATCACCTGGTTCCCTCCGAT (double strand) [crtI promoter footprint probe] | binds |  |  |  |  | 
5 | Rubrivivax gelatinosus PpsR (natural protein) |  |  |  |  |  | 4
